Data: PMC11532494 (Nature Communications, 2024)
Several values for one entry are separate records, joined by “and”; a condition that tells them apart may be missing. Equal values may be shown once. Read-outs that look alike come from different tables or passages of the source. No end group written: not given here. *: point of attachment. AMC = Cc1cc(=O)oc2cc(N*)ccc12

How the values were obtained:
Controls [1] = format: biochemical
KpHdaH (1b) = KpHdaH (1b) (Klebsiella pneumoniae, UniProt A0A377Z5F6); format: biochemical
BsAcuC (2c) = molecular target: T1, BsAcuC (2c) (Bacillus subtilis, UniProt P39067); test: Substrate screening assay (acyl-peptide-AMC); format: biochemical
T1 construct: made in house; host or cells: E. coli BL21 (DE3)
T1 sequence (P39067 1-387): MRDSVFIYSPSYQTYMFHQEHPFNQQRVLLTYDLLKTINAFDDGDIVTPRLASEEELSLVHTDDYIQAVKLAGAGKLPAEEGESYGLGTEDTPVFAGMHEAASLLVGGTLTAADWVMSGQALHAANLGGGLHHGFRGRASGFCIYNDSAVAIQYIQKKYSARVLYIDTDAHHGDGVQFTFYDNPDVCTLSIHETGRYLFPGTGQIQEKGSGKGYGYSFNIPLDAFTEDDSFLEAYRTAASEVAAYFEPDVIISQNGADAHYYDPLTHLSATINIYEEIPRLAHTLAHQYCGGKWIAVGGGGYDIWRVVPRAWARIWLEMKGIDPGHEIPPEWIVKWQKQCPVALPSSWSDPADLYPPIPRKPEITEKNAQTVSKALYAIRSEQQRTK
Description: (§1) Experiments with SIRT2 and SIRT5 were supplemented with NAD^+ (500 µM). Thereafter, a solution of trypsin (25 µL, 5.0 mg/mL; final concentration of 2.5 mg/mL) was added, and the development of the assay was allowed to proceed for 90 min at room temperature before fluorescence analysis. […] To this end, a single category is given to all conversions >48% on the heatmap. […] For the H4-derived peptide LGKbio no positive control was available.

VcHdaH (5b) = format: biochemical, Vibrio cholerae
VsHdaH (1b) = format: biochemical, Vibrio sp.
PsApaH (4) = PsApaH (4) (Pseudomonas sp. M30-35, UniProt A0A1Y0KY79); format: biochemical
Description: as §1

LcApaH (3) = LcApaH (3) (Legionella cherrii, UniProt A0A0W0SGS1); format: biochemical
RwDmhA (1b) = RwDmhA (1b) (Rhizorhabdus wittichii, UniProt A0A067XIQ6); format: biochemical
LpApaH (3) = LpApaH (3) (Legionella pneumophila, UniProt A0A2S6EWV0); format: biochemical
Controls [2] = format: biochemical; remark: listed apart in the source
RsPrpH (1b) = test: Substrate screening assay (acyl-peptide-AMC); format: biochemical, Rhizorhabdus sp.
[3] = substrate screening, mean of two measurements
[4] = substrate screening, measurement 1 of two
[5] = substrate screening, measurement 2 of two

## QPKKhex (QPKK-{AMC}; not fully specified (residue 4); printed as QPKKhex; also: hexanoyl-lysine (which Lys not given here); UniProt P04637 317-320, looked up, fragment)
Controls [1]
  [AMC] (nM), controls, means: 3516.11 nM
KpHdaH (1b); means of two measurements
  RFU means, KpHdaH (1b): 92 RFU
  RFU*2 means, KpHdaH (1b): 184 RFU*2
KpHdaH (1b); [3]
  [AMC] (nM), KpHdaH (1b), means: 89.84 nM
KpHdaH (1b); [4]
  [AMC] (nM), KpHdaH (1b): 166.02 nM
KpHdaH (1b); [5]
  [AMC] (nM), KpHdaH (1b): 13.67 nM
BsAcuC (2c); means of two measurements
  RFU means, BsAcuC (2c): 1487.5 RFU
  RFU*2 means, BsAcuC (2c): 2975 RFU*2
BsAcuC (2c); [3]
  [AMC] (nM), BsAcuC (2c), means: 1452.64 nM
BsAcuC (2c); two measurements, single values
  RFU*2, BsAcuC (2c): 3440 RFU*2 and 2510 RFU*2
VcHdaH (5b); means of two measurements
  RFU means, VcHdaH (5b): 50.5 RFU
  RFU*2 means, VcHdaH (5b): 101 RFU*2
VcHdaH (5b); [3]
  [AMC] (nM), VcHdaH (5b), means: 49.32 nM
VsHdaH (1b); means of two measurements
  RFU means, VsHdaH (1b): 66.5 RFU
  RFU*2 means, VsHdaH (1b): 133 RFU*2
VsHdaH (1b); [3]
  [AMC] (nM), VsHdaH (1b), means: 64.94 nM
VsHdaH (1b); [4]
  [AMC] (nM), VsHdaH (1b): 35.16 nM
VsHdaH (1b); [5]
  [AMC] (nM), VsHdaH (1b): 94.73 nM
PsApaH (4); means of two measurements
  RFU means, PsApaH (4): 94.5 RFU
  RFU*2 means, PsApaH (4): 189 RFU*2
PsApaH (4); [3]
  [AMC] (nM), PsApaH (4), means: 92.29 nM
PsApaH (4); [4]
  [AMC] (nM), PsApaH (4): 125.00 nM
PsApaH (4); [5]
  [AMC] (nM), PsApaH (4): 59.57 nM
LcApaH (3)
  RFU means, LcApaH (3): 70 RFU
  RFU*2 means, LcApaH (3): 140 RFU*2
  [AMC] (nM), LcApaH (3), means: 68.36 nM
RwDmhA (1b)
  RFU means, RwDmhA (1b): 55 RFU
  RFU*2 means, RwDmhA (1b): 110 RFU*2
  [AMC] (nM), RwDmhA (1b), means: 53.71 nM
LpApaH (3)
  RFU means, LpApaH (3): 57.5 RFU
  RFU*2 means, LpApaH (3): 115 RFU*2
  [AMC] (nM), LpApaH (3), means: 56.15 nM
Controls [2]
  RFU means, controls: 3600.5 RFU
  RFU*2, controls: 6176 RFU*2 and 8226 RFU*2
  RFU*2 means, controls: 7201 RFU*2
  RFU, controls: 3088 RFU and 4113 RFU
RsPrpH (1b)
  RFU means, RsPrpH (1b): -23.5 RFU
  RFU*2 means, RsPrpH (1b): -47 RFU*2
  [AMC] (nM), RsPrpH (1b), means: -22.95 nM
